Earlier results in publication PMC5095918.

Target: FANCL RING (Homo sapiens) (UniProt Q9NW38)
Chain of UniProt Q9NW38 (Q9NW38 304-366): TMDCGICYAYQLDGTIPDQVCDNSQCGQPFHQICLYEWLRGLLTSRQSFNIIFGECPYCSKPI

Q: With UBE2T (from UniProt Q9NPD8) as the substance, how does the Kd read?
A: 450 nM
